Test results published in patent EP4484444A1.

Target: T1, recombinant human PCPE-2 (procollagen C-proteinase enhancer 2) fused to a 6 Histidine-tag at the N-terminus (human) (UniProt Q9UKZ9)
T1 sequence: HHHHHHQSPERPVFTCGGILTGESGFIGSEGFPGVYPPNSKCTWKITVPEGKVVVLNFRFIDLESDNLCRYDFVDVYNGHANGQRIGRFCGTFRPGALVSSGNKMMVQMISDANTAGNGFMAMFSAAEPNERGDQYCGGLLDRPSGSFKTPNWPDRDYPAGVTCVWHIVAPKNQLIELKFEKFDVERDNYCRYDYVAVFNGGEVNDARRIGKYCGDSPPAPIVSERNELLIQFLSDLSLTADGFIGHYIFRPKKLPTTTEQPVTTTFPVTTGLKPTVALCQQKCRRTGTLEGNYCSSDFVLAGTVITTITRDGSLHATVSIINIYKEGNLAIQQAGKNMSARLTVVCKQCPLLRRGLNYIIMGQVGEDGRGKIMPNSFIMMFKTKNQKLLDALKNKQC
Assay: SPR competition: BMP-1 (200 nM) co-injected with PCPE-2 (200 nM) over immobilized C-propeptide III carrying PCPE-2

B1: human BMP-1 (bone morphogenetic protein-1) fused to a C-terminal Flag tag (enzyme, UniProt P13497-2 121-730, looked up, not shown: small tags and cut ends)
chain: AATSRPERVWPDGVIPFVIGGNFTGSQRAVFRQAMRHWEKHTCVTFLERTDEDSYIVFTYRPCGCCSYVGRRGGGPQAISIGKNCDKFGIVVHELGHVVGFWHEHTRPDRDRHVSIVRENIQPGQEYNFLKMEPQEVESLGETYDFDSIMHYARNTFSRGIFLDTIVPKYEVNGVKPPIGQRTRLSKGDIAQARKLYKCPACGETLQDSTGNFSSPEYPNGYSAHMHCVWRISVTPGEKIILNFTSLDLYRSRLCWYDYVEVRDGFWRKAPLRGRFCGSKLPEPIVSTDSRLWVEFRSSSNWVGKGFFAVYEAICGGDVKKDYGHIQSPNYPDDYRPSKVCIWRIQVSEGFHVGLTFQSFEIERHDSCAYDYLEVRDGHSESSTLIGRYCGYEKPDDIKSTSSRLWLKFVSDGSINKAGFAVNFFKEVDECSRPNRGGCEQRCLNTLGSYKCSCDPGYELAPDKRRCEAACGGFLTKLNGSITSPGWPKEYPPNKNCIWQLVAPTQYRISLQFDFFETEGNDVCKYDFVEVRSGLTADSKLHGKFCGSEKPEVITSQYNNMRVEFKSDNTVSKKGFKAHFFSEKRPALQPPRGRPHQLKFRVQKRNRTPQ
- % inhibition: 77%
